One block for each sequence: values may come before it.
Columns and labels:
[1] = target: HLA-A*02:01; experiment: IEDB peptide-MHC binding, purified MHC/competitive/radioactivity; ≥ and ≤ were set here for values at or beyond the usual limits of such assays; conditions: source organism: Toxoplasma gondii
[2] = target: HLA-A*11:01; experiment: as above; conditions: source organism: Toxoplasma gondii
[3] = target: HLA-B*07:02; experiment: as above; conditions: source organism: Toxoplasma gondii
[4] = target: HLA-A*32:07; experiment: IEDB peptide-MHC binding, purified MHC/competitive/fluorescence; filed as Kd, often an IC50 or EC50 that approximates it; ≥ and ≤ were set here for values at or beyond the usual limits of such assays
[5] = target: HLA-B*15:42; experiment: as above
[6] = target: HLA-B*39:01; experiment: as above; conditions: source organism: Escherichia coli B171
[7] = target: HLA-B*40:01; experiment: as above; conditions: source organism: Escherichia coli B171
[8] = target: HLA-B*40:13; experiment: as above; conditions: source organism: Escherichia coli B171
[9] = target: HLA-B*45:06; experiment: as above
[10] = target: HLA-B*83:01; experiment: as above
[11] = target: HLA-B*15:01; experiment: IEDB peptide-MHC binding, purified MHC/direct/fluorescence; filed as Kd, often an IC50 or EC50 that approximates it; ≥ and ≤ were set here for values at or beyond the usual limits of such assays; conditions: source organism: Salmonella enterica subsp. enterica serovar Typhi
[12] = target: HLA-B*35:01; experiment: as above; conditions: source organism: Salmonella enterica subsp. enterica serovar Typhi
[13] = target: HLA-B*15:17; experiment: IEDB peptide-MHC binding, purified MHC/competitive/fluorescence; filed as Kd, often an IC50 or EC50 that approximates it; ≥ and ≤ were set here for values at or beyond the usual limits of such assays; conditions: source organism: Salmonella enterica subsp. enterica serovar Typhi
[14] = target: HLA-B*44:02; experiment: as above; conditions: source organism: Salmonella enterica subsp. enterica serovar Typhi
[15] = target: HLA-B*57:01; experiment: as above; conditions: source organism: Salmonella enterica subsp. enterica serovar Typhi
[16] = target: HLA-B*58:01; experiment: IEDB peptide-MHC binding, purified MHC/direct/fluorescence; filed as Kd, often an IC50 or EC50 that approximates it; ≥ and ≤ were set here for values at or beyond the usual limits of such assays; conditions: source organism: Mycobacterium tuberculosis
[17] = target: HLA-A*32:15; experiment: IEDB peptide-MHC binding, purified MHC/competitive/fluorescence; filed as Kd, often an IC50 or EC50 that approximates it; ≥ and ≤ were set here for values at or beyond the usual limits of such assays; conditions: source organism: Mycobacterium tuberculosis variant bovis BCG str. Pasteur 1173P2
[18] = target: HLA-A*68:23; experiment: as above; conditions: source organism: Mycobacterium tuberculosis variant bovis BCG str. Pasteur 1173P2
[19] = target: HLA-B*35:01; experiment: as above; conditions: source organism: Mycobacterium tuberculosis variant bovis BCG str. Pasteur 1173P2
[20] = target: HLA-B*51:01; experiment: as above; conditions: source organism: Mycobacterium tuberculosis variant bovis BCG str. Pasteur 1173P2
[21] = source organism: Escherichia coli B171
[22] = source organism: Mycobacterium tuberculosis variant bovis BCG str. Pasteur 1173P2

Sequence: AVVSLLRLLK
- IC50 [1]: 11300 nM
- IC50 [2]: 6.5 nM
- IC50 [3]: ≥ 50000 nM

- Kd [4, 21]: 58.2 nM
- Kd [5, 21]: ≥ 5000 nM
- Kd [6]: 0.2 nM
- Kd [7]: 2.5 nM
- Kd [8]: 30.2 nM
- Kd [9, 21]: ≥ 5000 nM
- Kd [10, 21]: ≥ 5000 nM
Sequence: HELSLFWPL

Sequence: IVLLCYGGW
- Kd [11]: 6180 nM
- Kd [12]: 2530 nM
- Kd [13]: 175 nM
- Kd [14]: ≥ 20000 nM
- Kd [15]: 498 nM

Sequence: MTMITPPTF
- Kd [16]: 51.3 nM
- Kd [4, 22]: 9.3 nM
- Kd [17]: 19.2 nM
- Kd [18]: 4.4 nM
- Kd [5, 22]: ≥ 5000 nM
- Kd [19]: 111 nM
- Kd [9, 22]: ≥ 5000 nM
- Kd [20]: ≥ 20000 nM
- Kd [10, 22]: ≥ 5000 nM
